B1: HDV Ribozyme (parent)
chain: GGCCGGCAUGGUCCCAGCCUCCUCGCUGGCGCCGGCUGGGCAACAUUCCGAGGGGACCGUCCCCUCGGUAAUGGCGAAUGGGACCCA

Variants of: B1
Assay: self-cleavage, relative activity (ratio to wild type); higher = more cleavage; co-transcriptional

First: C21U G73C
Second: C22G C84G
The self-cleavage of the first is higher: 0.119 for the first, 0.0923 for the second.

Compared with C22G C84A, C21G G31A is higher in self-cleavage: 0.0369 for the first, 0.18 for the second.

Going from C22G C30U to C22G C30A, the self-cleavage falls from 0.0723 to 0.0652.

First: C22G C30G
Second: C21U C30U
The self-cleavage of the first is lower: 0.0437 for the first, 0.0755 for the second.

First: C21U C30G
Second: C22G C41U
The self-cleavage of the first is higher: 0.107 for the first, 0.0656 for the second.

First: C22A C49G
Second: C22A C48U
The self-cleavage of the first is lower: 0.143 for the first, 0.433 for the second.

Going from C22A C48A to C21U C41G, the self-cleavage rises from 0.201 to 0.432.

First: C21U A70G
Second: C21U A70U
The self-cleavage of the first is higher: 0.271 for the first, 0.228 for the second.

Compared with C21U A70C, C22A G59A is higher in self-cleavage: 0.332 for the first, 0.359 for the second.

First: C22A G59U
Second: C22A A83U
The self-cleavage of the first is higher: 0.377 for the first, 0.0678 for the second.

Compared with C22A A83G, C21U G53C is higher in self-cleavage: 0.14 for the first, 0.188 for the second.

First: C21U G53A
Second: C21G C85G
The self-cleavage of the first is lower: 0.116 for the first, 0.219 for the second.

Going from C22A G74C to C22A G74U, the self-cleavage falls from 0.146 to 0.0213.

Going from C21U A83G to C21U A83U, the self-cleavage rises from 0.124 to 0.162.

Compared with C22A G50C, C22A G50U is lower in self-cleavage: 0.354 for the first, 0.293 for the second.

First: C22A U47C
Second: C22A U47A
The self-cleavage of the first is lower: 0 for the first, 0.208 for the second.

First: C22A A45C
Second: C22A A45U
The self-cleavage of the first is lower: 0.115 for the first, 0.233 for the second.

Going from C22G C49A to C22A U60C, the self-cleavage rises from 0.131 to 0.424.

First: C22A G76C
Second: C22A G76A
The self-cleavage of the first is higher: 0.447 for the first, 0.212 for the second.

Compared with C22A G76U, C22A G25U is lower in self-cleavage: 0.554 for the first, 0.0755 for the second.

Going from C22A G25A to C21G G68A, the self-cleavage rises from 0.0369 to 0.0707.

Going from C21G G68C to C21U C58A, the self-cleavage rises from 0.0554 to 0.136.

Compared with C21U C58U, C22G C62G is lower in self-cleavage: 0.203 for the first, 0.111 for the second.

Going from C22G C62A to C21G C66G, the self-cleavage falls from 0.106 to 0.

Going from C21G C66A to C22A G34C, the self-cleavage rises from 0.0739 to 0.0773.

First: C22A G34A
Second: C21U C61U
The self-cleavage of the first is lower: 0.0573 for the first, 0.319 for the second.

Going from C21U C61G to C21G G81A, the self-cleavage falls from 0.277 to 0.0604.

Going from C21G G81C to C21G G81U, the self-cleavage rises from 0.0504 to 0.18.

First: C21U G35A
Second: C21U G35C
The self-cleavage of the first is lower: 0.108 for the first, 0.233 for the second.

Compared with C21U G35U, C22A G73U is lower in self-cleavage: 0.0804 for the first, 0.0573 for the second.

First: C22G A83U
Second: C21G G54U
The self-cleavage of the first is lower: 0.0462 for the first, 0.0875 for the second.

First: C21G G54A
Second: C21U G54U
The self-cleavage of the first is lower: 0.0496 for the first, 0.232 for the second.

First: C21U G54A
Second: C21U C24U
The self-cleavage of the first is higher: 0.159 for the first, 0.0287 for the second.

Compared with C22G G38C, C22G G38A is lower in self-cleavage: 0.391 for the first, 0.0231 for the second.

Going from C21U C32A to C21U C32G, the self-cleavage falls from 0.0674 to 0.

Compared with C21G G40C, C21G G40A is lower in self-cleavage: 0.0898 for the first, 0.0346 for the second.

Going from C21G U47C to C21G U47G, the self-cleavage rises from 0 to 0.185.

First: C21G U27C
Second: C21U G40A
The self-cleavage of the first is lower: 0.217 for the first, 0.538 for the second.

First: C21U G40U
Second: C22A G38C
The self-cleavage of the first is higher: 0.0764 for the first, 0.0346 for the second.

C21U G80C and C22G A71C are the same in self-cleavage: 0.151 for the first, 0.151 for the second.

Going from C22G A71G to C21U C62A, the self-cleavage rises from 0.0573 to 0.214.

First: C22G A42G
Second: C22G A42C
The self-cleavage of the first is lower: 0 for the first, 0.185 for the second.

Going from C21G C64G to C22A G28A, the self-cleavage rises from 0 to 0.148.

Going from C22A G28C to C22A G28U, the self-cleavage rises from 0 to 0.106.

Going from C22A U46C to C22A U46A, the self-cleavage rises from 0.0692 to 0.104.

C22G C32G and C22G C32A are the same in self-cleavage: 0 for the first, 0 for the second.

Compared with C22G C32U, C22G G29U is higher in self-cleavage: 0.0707 for the first, 0.217 for the second.

Compared with C22A A87U, C21U G74A is lower in self-cleavage: 0.24 for the first, 0.149 for the second.

Going from C21U G74U to C21U G74C, the self-cleavage rises from 0.0875 to 0.158.

Going from C21G G35C to C22G G39C, the self-cleavage falls from 0.178 to 0.0554.

Compared with C22G C58U, C22G C58G is lower in self-cleavage: 0.172 for the first, 0 for the second.

First: C22G C58A
Second: C21G U46G
The self-cleavage of the first is lower: 0 for the first, 0.0978 for the second.

Going from C21G G34A to C22A C41A, the self-cleavage rises from 0.0386 to 0.475.

Compared with C21G G67C, C22A U37A is lower in self-cleavage: 0.0978 for the first, 0.0554 for the second.

Compared with C21U C26U, C21U G39U is lower in self-cleavage: 0.646 for the first, 0.604 for the second.

Compared with C21U G39A, C21U G76C is lower in self-cleavage: 0.993 for the first, 0.347 for the second.

Going from C22G A77G to C22G A77U, the self-cleavage rises from 0.0504 to 0.162.

Going from C22G G25U to C22G G25C, the self-cleavage falls from 0.102 to 0.0665.

Going from C21G G76U to C22G C36G, the self-cleavage rises from 0.0583 to 0.123.

Compared with C22G C36A, C22A A70C is higher in self-cleavage: 0.0773 for the first, 0.17 for the second.

First: C22A A70G
Second: C21G U23A
The self-cleavage of the first is higher: 0.203 for the first, 0.0536 for the second.

Going from C21G U23G to C21G U23C, the self-cleavage falls from 0.0755 to 0.0615.

First: C21U A77C
Second: C21G C58U
The self-cleavage of the first is higher: 0.125 for the first, 0.0314 for the second.

Compared with C21G C58G, C21G C58A is higher in self-cleavage: 0 for the first, 0.0396 for the second.

First: C22A G82C
Second: C22A G82U
The self-cleavage of the first is lower: 0 for the first, 0.111 for the second.

First: C22A G82A
Second: C21U G59U
The self-cleavage of the first is lower: 0.0767 for the first, 0.288 for the second.

First: C21U G59C
Second: C22G A56C
The self-cleavage of the first is higher: 0.292 for the first, 0 for the second.

First: C22G A56U
Second: C21U A71C
The self-cleavage of the first is lower: 0.133 for the first, 0.293 for the second.

First: C22A C86G
Second: C22A C86A
The self-cleavage of the first is lower: 0.208 for the first, 0.448 for the second.

Compared with C21U C66U, C21U C66A is lower in self-cleavage: 0.299 for the first, 0.153 for the second.

Going from C21U U37G to C22A C58A, the self-cleavage rises from 0.0875 to 0.203.

Going from C22A C58G to C22A C58U, the self-cleavage falls from 0.38 to 0.332.

Compared with C22A U65G, C22A A51U is higher in self-cleavage: 0.302 for the first, 0.332 for the second.

First: C22A A77C
Second: C22A A77U
The self-cleavage of the first is lower: 0.0378 for the first, 0.101 for the second.

First: C21U G28U
Second: C21U G28A
The self-cleavage of the first is lower: 0 for the first, 0.0791 for the second.

Compared with C22G G53C, C22G G53A is higher in self-cleavage: 0 for the first, 0.0779 for the second.

Going from C21G G74C to C22A G40C, the self-cleavage falls from 0.104 to 0.0282.

First: C21G U69C
Second: C22G C66G
The self-cleavage of the first is higher: 0.104 for the first, 0.0845 for the second.

First: C21U C48U
Second: C21U C48A
The self-cleavage of the first is lower: 0.247 for the first, 0.302 for the second.

First: C21U C48G
Second: C22A C57G
The self-cleavage of the first is lower: 0.181 for the first, 0.543 for the second.

Going from C22A C57U to C22G G34C, the self-cleavage falls from 0.343 to 0.0811.

First: C21G G53A
Second: C21G G53U
The self-cleavage of the first is higher: 0.0511 for the first, 0.0248 for the second.

First: C22A A78C
Second: C22A G80U
The self-cleavage of the first is higher: 0.0692 for the first, 0.0408 for the second.

C22A G80C showed a self-cleavage of 0.229.

Reference: the RNAGym collection of RNA variant scans (doi:10.7554/elife.80360)
